Experimental findings from paper doi:10.1101/725622 (bioRxiv, 2019) are described below.

For the test, the target named is V2R-bound βarr1 in HEK-293 cells (V2R: Homo sapiens; βarr1: Rattus …, UniProt P30518;P29066). Kind of test: co-IP.

B1: Ib30 (HA-tagged intrabody version of Fab30) (scFv, V domains shown)
VH: EVQLVESGGGLVQPGGSLRLSCAASGFNVYSSSIHWVRQAPGKGLEWVASISSYYGYTYYADSVKGRFTISADTSKNTAYLQMNSLRAEDTAVYYCARSRQFWYSGLDYWGQGTLVTVSS
VL: DIQMTQSPSSLSASVGDRVTITCRASQSVSSAVAWYQQKPGKAPKLLIYSASSLYSGVPSRFSGSRSGTDFTLTISSLQPEDFATYYCQQYKYVPVTFGQGTKVEIK
Take B1: the binding result was “binds”.
